Columns and labels:
GCP cells = experiment: Clonogenicity / long-term propagation of GCP neurosphere cultures; format: cell-based, mouse
Protocol: (§1) After surgical resection from a mouse on the seventh day of postnatal life (P7) the cerebellum was mechanically shredded in a buffer containing HBSS, glucose and antibiotics, and DNase (at concentrations as defined above) and the individual cells thus obtained were counted and plated at a dilution of 16000 cells/cm^2 on a medium composed of DMEM-F12, glucose, Vitamin A-free B27, insulin, NALC, heparin, antibiotics (at concentrations as defined above) and SAG (200 nM) and EGF ([…]). On this medium the cells can be enriched and maintained for an unlimited time, after periodical dissociation of the spheres with Accutase® (2-3 times per week) and propagation by dilution (to prevent excessive growth and consequent death from nutrient deficiency and hypoxia). The reaction conditions were as described above.

Shh pathway = Shh pathway expression (Gli1, N-Myc; Western Blot, real time Q-PCR) in GCP neurosphere cultures; format: cell-based, mouse; details: factor alone, FIG. 4
Protocol: as §1

B1: EGF: Epidermal Growth Factor (protein, UniProt P01133 23-1207, looked up)
Pro-epidermal growth factor: PQHWSCPEGTLAGNGNSTCVGPAPFLIFSHGNSIFRIDTEGTNYEQLVVDAGVSVIMDFHYNEKRIYWVDLERQLLQRVFLNGSRQERVCNIEKNVSGMAINWINEEVIWSNQQEGIITVTDMKGNNSHILLSALKYPANVAVDPVERFIFWSSEVAGSLYRADLDGVGVKALLETSEKITAVSLDVLDKRLFWIQYNREGSNSLICSCDYDGGSVHISKHPTQHNLFAMSLFGDRIFYSTWKMKTIWIANKHTGKDMVRINLHSSFVPLGELKVVHPLAQPKAEDDTWEPEQKLCKLRKGNCSSTVCGQDLQSHLCMCAEGYALSRDRKYCEDVNECAFWNHGCTLGCKNTPGSYYCTCPVGFVLLPDGKRCHQLVSCPRNVSECSHDCVLTSEGPLCFCPEGSVLERDGKTCSGCSSPDNGGCSQLCVPLSPVSWECDCFPGYDLQLDEKSCAASGPQPFLLFANSQDIRHMHFDGTDYGTLLSQQMGMVYALDHDPVENKIYFAHTALKWIERANMDGSQRERLIEEGVDVPEGLAVDWIGRRFYWTDRGKSLIGRSDLNGKRSKIITKENISQPRGIAVHPMAKRLFWTDTGINPRIESSSLQGLGRLVIASSDLIWPSGITIDFLTDKLYWCDAKQSVIEMANLDGSKRRRLTQNDVGHPFAVAVFEDYVWFSDWAMPSVMRVNKRTGKDRVRLQGSMLKPSSLVVVHPLAKPGADPCLYQNGGCEHICKKRLGTAWCSCREGFMKASDGKTCLALDGHQLLAGGEVDLKNQVTPLDILSKTRVSEDNITESQHMLVAEIMVSDQDDCAPVGCSMYARCISEGEDATCQCLKGFAGDGKLCSDIDECEMGVPVCPPASSKCINTEGGYVCRCSEGYQGDGIHCLDIDECQLGEHSCGENASCTNTEGGYTCMCAGRLSEPGLICPDSTPPPHLREDDHHYSVRNSDSECPLSHDGYCLHDGVCMYIEALDKYACNCVVGYIGERCQYRDLKWWELRHAGHGQQQKVIVVAVCVVVLVMLLLLSLWGAHYYRTQKLLSKNPKNPYEESSRDVRSRRPADTEDGMSSCPQPWFVVIKEHQDLKNGGQPVAGEDGQAADGSMQPTSWRQEPQLCGMGTEQGCWIPVSSDKGSCPQVMERSFHMPSYGTQTLEGGVEKPHSLLSANPLWQQRALDPPHQMELTQ
modifications: Pro-epidermal growth factor
With B1 the “proliferative power of GCP cells” value (GCP cells) was “ensures its unlimited proliferative power” and the “expression of markers typical of GCP” value (Shh pathway) was “does not express the markers typical of GCP”.

From patent US20220177834A1, “STABLE SYSTEM FOR THE IN VITRO CULTURE OF CEREBELLAR GRANULE CELL PRECURSORS (GCP), STABLE METHOD FOR THE IN VITRO CULTURE OF SAID CELLS AND USE OF SAID SYSTEM OR METHOD FOR IN VITRO CULTURE” (UNIVERSITA DEGLI STUDI Dl ROMA "LA SAPIENZA", priority 2019, published 2022)
